# Results published in the DeepSol protein solubility set.
# Assay: soluble on expression in E. coli; label from the status in PepcDB or PDB records
row,Sequence,soluble on expression in E. coli
1,MKAKREALISLFHAIKEEKVDSDIIDLLLLINSIKGIYTTSSCSGRIGILEEPSLGAKPLSRWLIKVHRPMSFEEARDALKRAREGLIFLKSQPPIFHVVAETIENAKLVHEIGLASGFKYTTFKAISSRFLVEINGTEYLTVPLGKDGRIIASDEYLKFAISIGNKMLERGKSKLPRLRDNFEKIKKKLGEDPLFIQLKREILEILEHHHHHH,not soluble
2,MSEAAHSGAAPADLVELGRIASAYGVKGWVKVQPHSAQAEVLRTVSHWWLTRPAPQAARGVVASVPRAYQVLQARVHGGAVVAQLAGIDDRDQAEALRGCLVQAARSAFPAPADDEYYWVDLIGCALYSDADGESRLLGVVDEVFDNGAHAVLKVLRQQLQPGQPGPVPLVDPKGRPLEELVPFVRAHIRHVDLAARRIDSDWPLDYLEHHHHHH,soluble
3,GPGSMSRSKEPPLPEELRTRLGQMDGCATAESWESVGNECFSHGCHLSAIRCYTKALEKGSDTANLRSSRSAAYMKSSMFAGPSLALKDAERAAELEPGRCEAHLRVGDAQLARKKYAEAKAAYQKAIELDGSCTAATHALRIVERELFLRSLDEQKKFSPVTEKPSGENTGTTSTGSNAEGPLNMEEEIKKRIQLWAEDTTVREDRTAMRAFNARLDEADRQAGTKYKSELLLKFRGKMAAQEPFRRMVEERRDQEMRMGEGIDYRNADSYRAILTKGTDGVGLGISTDAYKSYKYESKMW,not soluble
4,MGSDKIHHHHHHMLEFVNVSKSFWTGTQRKIILDKVSFTVELGTSLGILAPNGTGKTTLINMMAGLEKPDEGEIYRGCKISFPLGFMGGVINRLSAMENCRYIARLYGLDPDYVESYCRWLCGLNEYFDQPLGTYSAGMKSRFSFALMLALDFDIYLIDEGMPSSTDVEFNRKAGIILQERLETTTIVIVSHQPRTLEKFANTAAVLMNGQLHMFETLEEAKQLYDYETQG,not soluble
5,PIKMGWLKKQRSIVKNWQQRYFVLRAQQLYYYKDEEDTKPQGCMYLPGCTIKEIATNPEEAGKFVFEIIPASWDQNRMGQDSYVLMASSQAEMEEWVKFLRRVAG,soluble
6,MAGDTTITVVGNLTADPELRFTPSGAAVANFTVASTPRMFDRQSGEWKDGEALFLRCNIWREAAENVAESLTRGSRVIVTGRLKQRSFETREGEKRTVVEVEVDEIGPSLRYATAKVNKASRSGGGGGGFGSGGGGSRQSEPKDDPWGSAPASGSFSGADDEPPF,soluble
7,MGSDKIHHHHHHMTKHLDVGQCLTIIEGTNTALKSYMDHFDFMEAAISRVLELEGSLKGKGGEALLRNYQELQLPAIRAARAFISSMKEMGEKLRSLILSFEPSENGMVSEDFYRNQVTRGYDRFEQFMEQNKAEVDAIAASVSHIIDLGKLDIRHVQDRVDDARKHANDTVEGLYELDHEGMRLMRELQRDMAELKAILKKVTEWTVSGGALLNGVDLNDVRSHFADKTLHTKAPEVSVKLSSPNPLIQYANDFPLRFKYDTMRSIMKVFDLSHHHKWFSNRIKSLPLTSLFIMARWNVNTKSDNYLKVH,not soluble
8,MGHHHHHHGGHMSLKIYVVYDSEGEHTKVLAEAIAEGARENDAAEVFIDHVDQADIRKLKDMDAIIWGCPGHFGTISSGLKTWIDRLGYLWAEGELINKVGAVFCTTATTHGGLEMTMHNLITPMFHQGMIVVGLPGNVPENALYGSYYGAGVTCPVDSDELMSEEGIQLGRALGRRVSQVTGNLTAGQEGGS,soluble
9,MSLYSTPLKKRIDYDRETFTASASLGGNRLRNRPRDDQNNGKPNLSSRSFLSERKTRKDVLNKYGEAGNTIESELRDVTTHVKISGLTSSEPLQLASEFVQDLSFRDRNTPILDNPDYYSKGLDYNFSDEVGGLGAFTPFQRQQVTNIPDEVLSQVSNTEIKSDMGIFLELNYCWITSDNKLILWNINNSSEYHCIDEIEHTILKVKLVKPSPNTFVSSVENLLIVATLFDIYILTISFNDRTHELNIFNTGLKVNVTGFNVSNIISYERTGQIFFTGATDGVNVWELQYNCSENLFNSKSNKICLTKSNLANLLPTKLIPSIPGGKLIQKVLEGDAGTEEETISQLEVDQSRGVLHTLSTKSIVRSYLITSNGLVGPVLIDAAHIRRGMNALGVKNSPLLSNRAFKIAKIVSISMCENNDLFLAVITTTGVRLYFKGSISRRSIGSLKLDSVKFPPTSISSSLEQNKSFIIGHHPLNTHDTGPLSTQKASSTYINTTCASTIISPGIYFTCVRKRANSGELSKGITNKALLENKEEHKLYVSAPDYGILKNYGKEGHHHHHH,soluble
10,MTTALHITLITETFPPEINGVANTLGRLCEGLRARGHQVELVRPRQGCDQSRASDEALLLCRGWPLPGYPGLQWGQSSMHKLLRRWKRQRPDVLYIATEGPLGLSALRAAKRLGISVVSGFHTNFQQYSSQYGLGLLTRLLTHYLRWFHNRSQLTLVPSASQHLELERRHFERLALLSRGVDSQLFHPAKRLDTLRADWGLGTDDLAVIHVGRLAQEKNLGLLKRCFERLQATYPQRRMKLIVVGDGPQRGALEKSLPEALFCGSQRGEALAAHYACGDLFLFPSLTETFGNVVLEALASGLAVVAYDQAGAAQHIRHGYNGVLAMPGDESAFCDAASWLLEEPETLRRVRLNARQHASRQGWAAVIEQFEDRLRSACEHGPAEDYEGLIEATVKPRSAVETLGTARGLPPSPPGAGSLEHHHHHH,soluble
11,METPKGTIIFTTVGRTHYGFDVFSLNIATSVERRLTDGVSVNFNAQFVNDKSDDVVFVSERNGSARIYKTRSGISKPEQIPGAPESYFHDRPIITQNNRLYFISAHEQPDRYFKNWSALYTVELNSAKREVTRVTPPDTADFSPAVSQSGDFLAVASYGTRSWGGEFHEINTDITVFKASKPETRVVICERGGWPTWSGDSTVFFHHQADDGWWSIFRVDIPENFTEYTDFPITPIRVTPSGLHCFTPAAFRDGKRIALATRRRGVNHRHIEIYDLENTTFQPVTESLNPSFHHYNPFVSPDSEFLGYHRFRGESTQGESIVPNIESIVSPIKTLRLLRINGSFPSSSPNGDLIALNSDFDINGGIKVSKSDGSKRWTLIKDRTAFYNSWSPTERHVIYTSLGPIFSPARIAVQIARIKFDPSDLTADKEDLPCDVKILTLENTGNNAFPSCSPDGKSIVFRSGRSGHKNLYIVDAVNGESNGGGIRRLTDGPWIDTMPCWSPKGDLIGFSSNRHNPENTAVFGAYVVRPDGTGLRRIQISGPEGSEEAARERVNHVSFNKDGDWLVFAANLSGVTAEPVTMPNQFQPYGDLYVVKLDGTGLRRLTWNGYEDGTPTWHTADELDLSQLNLNGQDGDKLEGQFEEPLWISCDI,soluble
12,MFEGFKEVTDKDFYKAVMMNPKPSVVVFTDPNNPANEQIKPILEKYQKLYGDKIDFFYMDVTKNTSFEDFGIFNFPAILYFRDTMELDRHDFIPTEEMVEQAIKRLLRMV,not soluble
13,MKVLRHGLFKDRRVFDENYIPPELRVRRGEAEALARIYLNRLLSGAGLSDVNMIYGSIGRVGIGKTTLAKFTVKRVSEAAAKEGLTVKQAYVNAFNAPNLYTILSLIVRQTGYPIQVRGAPALDILKALVDNLYVENHYLLVILDEFQSMLSSPRIAAEDLYTLLRVHEEIPSRDGVNRIGFLLVASDVRALSYMREKIPQVESQIGFKLHLPAYKSRELYTILEQRAELGLRDTVWEPRHLELISDVYGEDKGGDGSARRAIVALKMACEMAEAMGRDSLSEDLVRKAVSENEAASIQTHELEALSIHELIILRLIAEATLGGMEWINAGLLRQRYEDASLTMYNVKPRGYTQYHIYLKHLTSLGLVDAKPSGRGMRGRTTLFRLAPHLPADRLIEVVDNIIQAKMASGYE,soluble
14,MAHHHHHHMRHMCVTLKRRACTVSFSPFLMSYFQSMLMPYRDSVRSSKSDKASSRTVNEEAKVSLSAFSFLFSEMCTRAHNTPSKASNVEEIEQRLTSLGVLVGARLIMLSSLKDPLELQRRPITIEGALKLFQDKLWSRWFGKPANDLQRETGSDRFFIFDTEPIVLRYVYPSPEYLDGEGRWSINYASFMGGIVEGALKAIGFAAEVLTYHQPEPSKPHQSIFAISFAKHVWDRERRLRG,not soluble
